Like-named read-outs stand apart in the source and are kept apart here.
Key:
Gdi1 = target: T1, Gdi1 (S. cerevisiae, UniProt P39958 1-451); assay: SEC
T1 sequence: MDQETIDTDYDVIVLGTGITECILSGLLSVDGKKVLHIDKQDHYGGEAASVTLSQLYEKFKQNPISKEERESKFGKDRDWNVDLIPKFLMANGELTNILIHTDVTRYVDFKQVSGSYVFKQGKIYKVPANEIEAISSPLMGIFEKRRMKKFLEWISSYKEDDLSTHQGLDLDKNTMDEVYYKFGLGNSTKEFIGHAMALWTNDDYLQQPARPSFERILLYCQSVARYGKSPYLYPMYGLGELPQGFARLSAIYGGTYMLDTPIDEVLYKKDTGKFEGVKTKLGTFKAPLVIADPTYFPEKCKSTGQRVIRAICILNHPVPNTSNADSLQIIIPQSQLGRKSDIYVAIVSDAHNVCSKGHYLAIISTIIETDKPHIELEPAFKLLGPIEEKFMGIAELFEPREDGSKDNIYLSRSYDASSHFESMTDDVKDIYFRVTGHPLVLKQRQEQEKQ

Gyp6 [1] = target: T2, Gyp6 (S. cerevisiae (endogenous, purified …, UniProt P32806 1-458)); assay: liposome flotation
T2 sequence: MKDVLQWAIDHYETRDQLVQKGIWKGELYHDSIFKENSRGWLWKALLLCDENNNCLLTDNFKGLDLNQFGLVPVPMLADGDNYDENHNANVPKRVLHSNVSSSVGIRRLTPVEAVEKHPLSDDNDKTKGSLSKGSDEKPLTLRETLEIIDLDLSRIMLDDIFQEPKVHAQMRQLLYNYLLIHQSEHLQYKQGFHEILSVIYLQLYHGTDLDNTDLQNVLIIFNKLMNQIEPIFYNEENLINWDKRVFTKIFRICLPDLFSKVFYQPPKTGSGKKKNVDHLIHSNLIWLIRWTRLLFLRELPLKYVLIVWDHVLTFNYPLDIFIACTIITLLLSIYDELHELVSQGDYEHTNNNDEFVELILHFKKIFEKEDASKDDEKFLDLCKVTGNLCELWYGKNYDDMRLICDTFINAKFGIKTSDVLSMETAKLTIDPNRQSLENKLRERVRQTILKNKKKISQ

Sec7 = Sec7 (S. cerevisiae (endogenous, purified …, UniProt P11075 1-2009)); assay: liposome flotation
Sec7 (S. cerevisiae, sequence (P11075 whole entry): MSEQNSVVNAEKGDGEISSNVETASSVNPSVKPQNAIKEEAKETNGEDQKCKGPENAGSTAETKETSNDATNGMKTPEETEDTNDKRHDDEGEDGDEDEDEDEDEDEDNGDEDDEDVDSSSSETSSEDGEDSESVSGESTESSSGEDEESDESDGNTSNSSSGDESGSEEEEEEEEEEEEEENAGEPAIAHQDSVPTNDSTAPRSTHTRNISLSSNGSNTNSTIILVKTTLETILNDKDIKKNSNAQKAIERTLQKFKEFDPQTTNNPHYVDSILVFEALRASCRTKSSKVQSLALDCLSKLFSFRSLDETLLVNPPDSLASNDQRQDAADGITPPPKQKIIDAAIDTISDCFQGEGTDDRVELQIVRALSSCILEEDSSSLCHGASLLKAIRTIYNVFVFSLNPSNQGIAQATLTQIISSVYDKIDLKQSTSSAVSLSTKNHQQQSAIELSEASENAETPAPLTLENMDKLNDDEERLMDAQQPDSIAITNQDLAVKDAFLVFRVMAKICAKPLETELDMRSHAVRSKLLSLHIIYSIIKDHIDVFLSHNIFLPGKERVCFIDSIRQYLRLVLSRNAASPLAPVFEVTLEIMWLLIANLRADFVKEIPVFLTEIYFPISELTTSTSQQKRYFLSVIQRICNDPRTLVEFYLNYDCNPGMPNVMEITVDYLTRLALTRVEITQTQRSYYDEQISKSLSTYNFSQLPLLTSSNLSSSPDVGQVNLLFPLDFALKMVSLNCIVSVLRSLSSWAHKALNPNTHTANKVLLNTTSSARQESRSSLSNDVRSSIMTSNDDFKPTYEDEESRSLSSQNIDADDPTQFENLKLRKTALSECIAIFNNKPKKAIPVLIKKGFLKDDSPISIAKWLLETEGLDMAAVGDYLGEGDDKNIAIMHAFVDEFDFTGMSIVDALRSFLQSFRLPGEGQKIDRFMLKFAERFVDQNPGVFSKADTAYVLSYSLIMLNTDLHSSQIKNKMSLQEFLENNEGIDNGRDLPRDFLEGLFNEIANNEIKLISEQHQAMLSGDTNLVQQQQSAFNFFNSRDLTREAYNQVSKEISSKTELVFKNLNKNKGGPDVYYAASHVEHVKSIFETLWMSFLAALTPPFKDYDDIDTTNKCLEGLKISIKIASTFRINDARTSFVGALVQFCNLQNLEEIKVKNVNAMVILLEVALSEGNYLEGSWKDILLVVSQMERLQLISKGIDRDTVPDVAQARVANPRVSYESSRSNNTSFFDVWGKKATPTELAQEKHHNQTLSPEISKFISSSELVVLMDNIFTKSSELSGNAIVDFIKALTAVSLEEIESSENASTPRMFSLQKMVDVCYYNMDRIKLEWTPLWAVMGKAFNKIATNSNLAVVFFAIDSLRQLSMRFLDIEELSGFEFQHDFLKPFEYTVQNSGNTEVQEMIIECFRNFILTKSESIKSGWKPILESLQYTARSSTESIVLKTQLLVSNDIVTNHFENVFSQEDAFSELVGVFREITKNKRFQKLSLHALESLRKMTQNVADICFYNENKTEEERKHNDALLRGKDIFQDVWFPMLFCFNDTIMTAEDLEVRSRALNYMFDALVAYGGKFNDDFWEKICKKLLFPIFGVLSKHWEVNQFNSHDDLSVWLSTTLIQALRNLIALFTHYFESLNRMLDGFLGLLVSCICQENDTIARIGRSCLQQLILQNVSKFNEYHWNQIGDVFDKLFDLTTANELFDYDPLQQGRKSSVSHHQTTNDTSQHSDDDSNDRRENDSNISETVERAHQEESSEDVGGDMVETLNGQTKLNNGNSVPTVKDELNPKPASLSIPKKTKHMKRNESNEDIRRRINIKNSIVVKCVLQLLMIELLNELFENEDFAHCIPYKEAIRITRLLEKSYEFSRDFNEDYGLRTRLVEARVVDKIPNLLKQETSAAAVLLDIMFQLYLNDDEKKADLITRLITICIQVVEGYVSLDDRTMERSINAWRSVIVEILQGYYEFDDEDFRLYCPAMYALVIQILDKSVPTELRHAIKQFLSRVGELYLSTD

Gyp6 [2] = target: T2, Gyp6; assay: liposome flotation; remark: listed apart in the source

B1: prenylated Ypt6 (natural protein)
chain: MSRSGKSLTKYKIVFLGEQGVGKTSLITRFMYDTFDDHYQATIGIDFLSKTMYLDDKTIRLQLWDTAGQERFRSLIPSYIRDSRVAIIVYDITKRKSFEYIDKWIEDVKNERGDENVILCIVGNKSDLSDERQISTEEGEKKAKLLGAKIFMETSTKAGYNVKALFKKIAKSLPEFQNSESTPLDSENANSANQNKPGVIDISTAEEQEQSACQC
modifications: prenylated in vitro (geranylgeranyl pyrophosphate, GGTase)
binding result (Gdi1): binds

B2: prenylated Ypt32 (natural protein)
chain: MSNEDYGYDYDYLFKIVLIGDSGVGKSNLLSRFTTDEFNIESKSTIGVEFATRTIEVENKKIKAQIWDTAGQERYRAITSAYYRGAVGALIVYDISKSSSYENCNHWLTELRENADDNVAVGLIGNKSDLAHLRAVPTDEAKNFAMENQMLFTETSALNSDNVDKAFRELIVAIFQMVSKHQVDLSGSGTNNMGSNGAPKGPTISLTPAPKEDKKKKSSNCC
modifications: prenylated in vitro (geranylgeranyl pyrophosphate, GGTase)
binding result (Gdi1): binds
binding result (Gyp6 [1]): binds
binding result (Sec7): binds

B3: myristoylated Arl1 (natural protein)
chain: MGNIFSSMFDKLWGSNKELRILILGLDGAGKTTILYRLQIGEVVTTKPTIGFNVETLSYKNLKLNVWDLGGQTSIRPYWRCYYADTAAVIFVVDSTDKDRMSTASKELHLMLQEEELQDAALLVFANKQDQPGALSASEVSKELNLVELKDRSWSIVASSAIKGEGITEGLDWLIDVIKEEQL
modifications: N-myristoylated
binding result (Gyp6 [2]): binds

B4: prenylated Ypt1 (natural protein)
chain: not shown
modifications: prenylated in vitro (geranylgeranyl pyrophosphate, GGTase)
binding result (Gdi1): binds
